Here are results for five proteins from article PMC3433786 (The EMBO Journal, 2012).

The data set “AUC” concerns the molecule itself. The experiment in a line: AUC.
The data set “SEC-MALS” deals with the molecule itself. Nature of the data set: SEC-MALS. On the technique in general: Size exclusion chromatography separates by hydrodynamic size, large species first.
The data set “crystal structure” concerns the molecule itself. The experiment in a line: crystal structure.

B1: mouse stomatin domain (amino acids 86–213), stomatin^86–213 (domain or fragment, UniProt P54116 86-213, looked up)
chain: PSTDSLIKVDMRTISFDIPPQEVLTKDSVTISVDGVVYYRVQNATLAVANITNADSATRLLAQTTLRNALGTKNLSQILSDREEIAHHMQSTLDDATDDWGIKVERVEIKDVKLPVQLQRAMAAEAEA
In general, Kd refers to the equilibrium constant for the complex coming apart. A low value points to tighter binding. For B1, the affinity in the data set “AUC”, expressed as Kd, was 37 µM.

B2: stomatin^86–213 R97D, L109D, L145D (domain or fragment, mouse, UniProt P54116 86-213, looked up)
chain: PSTDSLIKVDMDTISFDIPPQEVDTKDSVTISVDGVVYYRVQNATLAVANITNADSATRDLAQTTLRNALGTKNLSQILSDREEIAHHMQSTLDDATDDWGIKVERVEIKDVKLPVQLQRAMAAEAEA
With B2, in the data set “SEC-MALS”, the binding result is listed as “binds”.

B3: stomatin^86–213 L109D,L145D (domain or fragment, mouse, UniProt P54116 86-213, looked up)
chain: PSTDSLIKVDMRTISFDIPPQEVDTKDSVTISVDGVVYYRVQNATLAVANITNADSATRDLAQTTLRNALGTKNLSQILSDREEIAHHMQSTLDDATDDWGIKVERVEIKDVKLPVQLQRAMAAEAEA
Take B3: the binding result in the data set “SEC-MALS” was “binds”.

B4: stomatin^86–213 T182W (domain or fragment, mouse, UniProt P54116 86-213, looked up)
chain: PSTDSLIKVDMRTISFDIPPQEVLTKDSVTISVDGVVYYRVQNATLAVANITNADSATRLLAQTTLRNALGTKNLSQILSDREEIAHHMQSTLDDAWDDWGIKVERVEIKDVKLPVQLQRAMAAEAEA
B4: the binding result in “SEC-MALS” is “binds”.

B5: stomatin^86–213 LI91,92AA (domain or fragment, mouse, UniProt P54116 86-213, looked up)
chain: PSTDSAAKVDMRTISFDIPPQEVLTKDSVTISVDGVVYYRVQNATLAVANITNADSATRLLAQTTLRNALGTKNLSQILSDREEIAHHMQSTLDDATDDWGIKVERVEIKDVKLPVQLQRAMAAEAEA
B5: in the data set “crystal structure”, the binding result is reported as “binds”.
